Here are results for 10 molecules from patent US20230038720A1.

The target in this assay is TACE. The assay is described as follows: cell-based or functional assay.
cyclo(GVCICRRRVCICGR) (disulfide (positions not given here); not fully specified (bridges)) [Peptide 1] gave a TACE IC50 of 0.858 µg/mL.

Molecule cyclo(GVCSCRRRFCLCRR) (disulfide (positions not given here); not fully specified (bridges)) [Peptide 8] displayed a TACE IC50 of 2.61 µg/mL. On to cyclo(GVCICRRGVCICRR) (disulfide (positions not given here); not fully specified (bridges)) [Peptide 4], for which the TACE IC50 was determined as 0.546 µg/mL. With cyclo(GVCSCRRRFCICRR) (disulfide (positions not given here); not fully specified (bridges)) [Peptide 6], the TACE IC50 is 3.19 µg/mL. Then cyclo(GACICRRRFCLCRR) (disulfide (positions not given here); not fully specified (bridges)) [Peptide 9], with 0.515 µg/mL; and cyclo(GVCACRRRFCACRR) (disulfide (positions not given here); not fully specified (bridges)) [Peptide 10], with 2.74 µg/mL; and cyclo(GVCICRRRFCSCRR) (disulfide (positions not given here); not fully specified (bridges)) [Peptide 7], with 1.87 µg/mL.

With cyclo(GVCACARRFCACRR) (disulfide (positions not given here); not fully specified (bridges)) [Peptide 5], the TACE IC50 amounted to 1.83 µg/mL. As for cyclo(GVCICRRRFCLCRR) (disulfide (positions not given here); not fully specified (bridges)) [Peptide 2], the TACE IC50 was 2.2 µg/mL.

cyclo(GVCLCRRGVCLCRR) (disulfide (positions not given here); not fully specified (bridges)) [Peptide 3] registered a TACE IC50 of 1.15 µg/mL.
